The values below come from patent publication US9096681B2, “XBP1, CD138, and CS1 peptides” (Dana-Farber Cancer Institute, Inc., priority 2008, dated 2015).

This assay concerns the target HLA-A2 molecules on the surface of human T2 cells (Homo sapiens, UniProt P04439, D140Y/D185E/D98H/E176V/E277Q/G131W/G231S/I119V/I121R/I166T/I218V/L300P/L318F/N151K/N90K/P208A/P217A/Q86G/Q94H/R138H/R169H/T345S). In words: Peptide stability assay (peptide/HLA-A2 binding stability post-Brefeldin A).

Regarding “GLVGLIFAV (listed as Homo sapiens) [CD138 #2p, native CD138 peptide]”, under “CD138 peptide (FIG. 12), 0 hr, 2 hr, 4 hr, 6 hr, or overnight”, the HLA-A2 binding stability entry is reported as “nearly equivalent to influenza virus protein matrix peptide58-66”.

Consider “NISPWILAV (listed as Homo sapiens) [XBP1184-192, native non-spliced XBP1 peptide]”, for which the HLA-A2 binding stability result (non-spliced XBP1 peptides (FIG. 2), 0, 2, 4, 6 and 18 hours post-Brefeldin A) is listed as “significantly lower level of HLA-A2 binding stability as compared to the influenza virus protein matrix peptide58-66”.
